Test results from article PMC9726709, “Fluorescently tagged nanobodies and NanoBRET to study ligand-binding and agonist-induced conformational changes of full-length EGFR expressed in living cells” (Frontiers in Immunology, 2022).

How the values were obtained:
[1] = target: T1, N-terminal NanoLuc-tagged EGFR (NLuc-EGFR) (human, UniProt P00533 25-1210); test: FRET or BRET; NanoBRET displacement of 3 nM EGF-AF488 by unlabelled EGFR ligands on living HEK293 cells expressing NLuc-EGFR; added simultaneously, 30 min at 37 °C; HBSS with 0.2% BSA; Ki from IC50 by Cheng-Prusoff; pKi is the negative log10; conditions: one partner purified
T1 construct: ORF from the Kazusa DNA Research Institute; NanoLuc fused to its N-terminus via a Gly-Ser-Ser-Gly linker; signal peptide of IL-6 before NanoLuc; Vector pNKF1-secN CMV; The abstract says HEK293T, the methods HEK293; also called full-length N-terminal nanoluciferase-EGFR; NanoLuc-EGFR; source: HEK293 cells, stably transfected, on living cells; not shown: NanoLuc, N-terminal, kept

[2] = target: T1, N-terminal NanoLuc-tagged EGFR …; conditions: one partner purified
[3] = target: T1, N-terminal NanoLuc-tagged EGFR …; test: cell-based or functional assay

Binder | pKi [1] | pIC50 [2] | pEC50 for enhancement of the specific binding of 12.5 nM Q86c-HL488 (conformational sensor nanobody) to NLuc-EGFR, NanoBRET on HEK293 cells [3]
heparin binding EGF-like growth factor (ligand, UniProt Q99075 63-148, looked up, the other ligands are human recombinant proteins from R&D Systems; also called HB-EGF; Hb-EGF) DLQEADLDLLRVTLSSKPQALATPNKEEHGKRKKKGKGLGKKRDPCLRKYKDFCIHGECKYVKELRAPSCICHPGYHGERCHGLSL | 8.43 | 8.8 | 9.2
human recombinant betacellulin (ligand, UniProt P35070 32-111, looked up, Betacellulin, human, recombinant; also called BTC; source: bought: R&D Systems (261-CE-010)) DGNSTRSPETNGLLCGDPEENCAATTTQSKRKGHFSRCPKQYKHYCIKGRCRFVVAEQTPSCVCDEGYIGARCERVDLFY | 8.45 | 9.02 | 9.17
